Target: the molecule itself
Assay: cross-linking; disulfide cross-linking of variants purified in DDM with 50 µM Cu(II)-(1,10-phenanthroline)3 at 25 °C; non-reducing SDS-PAGE and Western blot with anti-Histag antibody

B1: BbZIP L138C/M295C variant (natural protein)
chain: MNQPSSLAADLRGAWHAQAQSHPLITLGLAASAAGVVLLLVAGIVNALTGENRVHVGYAVLGGAAGFAATALGALMALGLRAISARTQDAMLGFAAGMMLAASAFSLILPGLDAAGTIVGPGPAAAAVVALGLGLGVCLMLGLDYFTPHEHERTGHQGPEAARVNRVWLFVLTIILHNLPEGMAIGVSFATGDLRIGLPLTSAIAIQDVPEGLAVALALRAVGLPIGRAVLVAVASGLMEPLGALVGVGISSGFALAYPISMGLAAGAMIFVVSHEVIPETHRNGHETTATVGLCAGFALMMFLDTALG
notes: Purified protein was detected with the anti-Histag antibody; in the membrane fraction it was detected with a custom monoclonal antibody against BbZIP; source: E. coli C41 (DE3) pLysS, purified in DDM (1 mM TCEP except in the last size-exclusion step); also in the spheroplast-derived membrane fraction of E. coli cells; not shown: His-tag, N-terminal, kept
stoichiometry N: 2
